Test results as given in paper PMC11955279 (2025).

B1: AtSEP3 (…3), wild type, in pGADT7 [Arabidopsis thaliana] / AtAP1 (APETALA1), in pGBKT7 [Arabidopsis thaliana] (parent complex)
chain 1: MGRGRVELKRIENKINRQVTFAKRRNGLLKKAYELSVLCDAEVALIIFSNRGKLYEFCSSSSMLRTLERYQKCNYGAPEPNVPSREALAVELSSQQEYLKLKERYDALQRTQRNLLGEDLGPLSTKELESLERQLDSSLKQIRALRTQFMLDQLNDLQSKERMLTETNKTLRLRLADGYQMPLQLNPNQEEVDHYGRHHHQQQQHSQAFFQPLECEPILQIGYQGQQDGMGAGPSVNNYMLGWLPYDTNSI
chain 2: not shown

Variants of: B1
Test: yeast two-hybrid β-galactosidase activity assay; parent: 26; read off a plot

| Variant | response |
| --- | --- |
| chain 1 L116A | ~11 β-galactosidase units |
| chain 1 L108A | ~15 β-galactosidase units |
| chain 1 L120A | ~8.7 β-galactosidase units |
| chain 1 L99A | ~16 β-galactosidase units |
| chain 1 L101A | ~14 β-galactosidase units |
| chain 1 L115A | ~13 β-galactosidase units |

Variants of: B1
Test: yeast two-hybrid β-galactosidase activity assay; parent: 51; read off a plot

| Variant | response |
| --- | --- |
| chain 1 L99A | ~31 β-galactosidase units |
| chain 1 L99A, chain 1 L101A, chain 1 L108A, chain 1 L115A | ~25 β-galactosidase units |
| chain 1 L99A, chain 1 L101A, chain 1 L108A, chain 1 L115A, chain 1 L116A | ~15 β-galactosidase units |
| chain 1 L99A, chain 1 L101A | ~24 β-galactosidase units |
| chain 1 L99A, chain 1 L101A, chain 1 L108A | ~21 β-galactosidase units |
